experiment: soluble on expression in E. coli; label from the status in PepcDB or PDB records

| Sequence | soluble on expression in E. coli |
| --- | --- |
| MIKMGRSEMKIASAELRELMKAVSEGHYETVNTILDKDPELVNQYAPPTYDSPLARVLNKKHIDYKMLDILVKHHVDFDYPINYHKETPIELACKNQDLQLFKYLVQHNAPISEQAPHFLLVNSTNIKYLTEDKIKNTCEIIKLMGGLEAVSSKCDAEGNRFGEQARKSQLINRFGGIVKYDYMQLLQSVYPIVDREVDAPTIHGSTEVLTNLLNKIRGQFSSKETYDQQNLKDSISLFFMTGGEIPPSRKVPESRFEEAGIDTPKNAL | not soluble |
| MIKSALLVLEDGTQFHGRAIGATGSAVGEVVFNTSMTGYQEILTDPSYSRQIVTLTYPHIGNVGTNDADEESSQVHAQGLVIRDLPLIASNFRNTEDLSSYLKRHNIVAIADIDTRKLTRLLREKGAQNGCIIAGDNPDAALALEKARAFPGLNGMDLAKEVTTAEAYSWTQGSWTLTGGLPEAKKEDELPFHVVAYDFGAKRNILRMLVDRGCRLTIVPAQTSAEDVLKMNPDGIFLSNGPGDPAPDDYAITAIQKFLETDIPVFGICLGHQLLALASGAKTVKMKFGHHGGNHPVKDVEKNVVMITAQNHGFAVDEATLPANLRVTHKSLFDGTLQGIHRTDKPAFSFQGHPEASPGPHDAAPLFDHFIELIEQYRKTAK | soluble |
| MIKSSSKIGLAFFVRPQFDVDLAKNFFNKVQDSLKEAGIATQVFELPVSTDAEALSLAESVNSHQDLHGLIVVQGTFCDASLILNLASNINLPIMIWATKEQPTGGRLSLNSFCGLNLGAHTLVNAGIKFKGVYGSPGSPAVIKKVTSFARAAGAVKWLKGKRIGLFGHRPSGYYPSNFNEILLRKQFGITVEYLSLSEVFSLAQKMEIKDIQPFINTLVGVEGLEMVSTSKSVQAYLALKELIAQKALDAVAVECWPEFMAGFGGAVCYALSRLNDEGIVAACEADVNGAVTMLLGSYLSSQANFIADLVGAEEEQNQLIFWHCGNGPLSLAAPGTNPVAGVHPNRKTPLAMYFPLKGGPVTVSRLSSDHNGNLRLFLGSGTGIETDLLYSGNSLPIQISGSVEETLDTILCEGIEHHYIVTYGDLTSEFREIAELLGLRMITF | not soluble |
| MIKSYKIRGTSLTVNRSDSYPDACNWTADSFGMLFYDPEYDLSTESLSITLDAGNDWVPEGGLVYESLPVKVTYENPEMMDYGTDWFNQGYSALGWNGEEYAYLGTDRGIVNILLEEDEKILYPNEEYDLKEGYTLKVTDLASDKACLTLSRNKLPVYSSIISPGKSADLGTHTFLYKKELNGVEVPLFSVYVDSVIQGDELSAVNLKHLLHFSDSPLELNYGKEYGELTIVETYPKLRLENKHVVWSGSDINVTEDIWIGRFEKKTAGNLFVLEHHHHHH | soluble |
| MIKTVVGSYPVVKGKPDSIPDKIKKFFGKYDKYEYSIKKALDDQLNVGIDILSDGQVRGDMVEIFVSNMYGFEGRRVVNRVEFVKPITLNDIKYSLKYISKKDPEKGVKGIITGACTLASSIRVENYYSDNKDENLIYDLAGALNKEALSIQNHVKMIQFDEPILSTGLYDLEVAKKAMDIITSGINVPVAMHVCGDVSKIFYKLNEFNVDILDHEFASCRKNLEILNEITKKVGFGCINTKLKSVDSVDEVKALISEGIEILKNNSKFEGSINDSVIIDPDCGMRLLPVDVAYSKLNNMVTAANEIEKDLILEHHHHHH | not soluble |
| MILITLLKDGVGEKMRIVFDLGGSVVMPKEGAKAEKIMEYANIFKKIKDEGHEVAIVVGGGKTAREYIEIGRELGASESFCDELGIMATRMNAMILITALGDYSIKKVPTSFEEAELILNLGKIPVMGGTHPGHTTDAVAASLAEFINADLLVIGTNVDGVYDKDPNKYEDAKKFDKMSAKELVDLAISSSLKAGSSSVVDLLAAKIIERAKLKVAVVKGTPEELLNVSKGIINGTIIEG | soluble |
| MILLPLHCGHVPCFPPLELPVTHVAVIGAGFSGLAAALRLAQAGAQVTVLDALDRPGGKAALGYDDFSSGPTVVTMPQIFAALHARLGWDAPALTPAHPTTTYHALSGRTFAPEALNVVGSLDPTMTQLSRAEGRRYRQLLFAARQMYSGAADTFLFAPPPTRTQLAQYALRAGRQAAPLTPLARYVRSGPFLTPFWLRFATYLGADPYRAPAVLHNIAWVELGDGIWHLPGGLLALAERLYAEALDRGVRFEFGIQVQHLSTHGGRVLGAHTSRGAFAADRWVSAADRALTLGWLGQDTPTTPRGVSGFALQLRLGEDLGQGHHIFWPADYAREWQDIRAGRLPSEPTLYLHLDGPRAFLLVNAPPDPRLGLSPERKADYARHLLQRLQSRFPLPVVEWQALAPADYARTGLGGALYGRAPHGLLGSLRPGWRLPQARNLVQVGGTVHPGGGVPLSLLSGWNGAGSLLGLDYDSLDGEKAFGKPAPAIKLEHHHHHH | not soluble |
| MILPPIPTPFDREGRLDEEAFRELAQALEPLVDGLLVYGSNGEGVHLTPEERARGLRALRPRKPFLVGLMEETLPQAEGALLEAKAAGAMALLATPPRYYHGSLGAGLLRYYEALAEKMPLFLYHVPQNTKVDLPLEAVEALAPHPNVLGIKDSSGDLSRIAFYQARLQEFRVYTGHAPTFLGALALGAEGGILAAANLAPRAYRALLDHFREGRLAEAQELQKKLFPLGDLLAKGGVPLLKQALRHLGLPAGYPRPPYPAESPLWERFLPVLEGLKEEGWVL | soluble |
| MILTEQEKAEVEANRRRYEQHKALGQQQAPKALPPPTPRDGAPIAPESIIHRETVPGGWYYVTKLGRGEAVRIINTSGTSCVSIQAWNALDPSERLNHADTIKVQWAASLRKGRVILSDMGRALLSIIEDTSGAHDTMVGGSNAATNAERYGVGSFRNARDNFVLAAGKLGLDRRDVHPSIALFAPVAVDSQGRFEWHGERRHKGDFVDLRAELDLLIAVSNCPHPLDPSPSYAPGDIELIRYQAPQPASDDLCRTVSLEAKRAFENNAFYLAGAAGRALEHHHHHH | soluble |
| MILVVDNYDSFTYNLVDIVAQHTDVIVQYPDDDNVLNQSVDAVIISPGPGHPLDDQQLMKIISTYQHKPILGICLGAQALTCYYGGEVIKGDKVMHGKVDTLKVISHHQHLLYQDIPEQFSIMRYHSLISNPDNFPEELKITGRTKDCIQSFEHKERPHYGIQYHPESFATDYGVKIITNFINLVKEG | not soluble |
| MIMATLVITIGNDDCVNEGINIICNQCRPIYMNEDNKIIVNVVGEEKFGAGHNAEYITKQVDKHLGIIRDYIIEGLTDCYVEYDENGKEIFIPKTK | not soluble |
| MIMSKIKLTKNDLKKQKDELKMFKRYLPTLQLKKQQLYMEIVKIENSYKIKNLEQQKLKENISNWISLFSEKFPFESWIQVKTVVKKSLNIAGVAIPIFDSIEYEDIRHDLLFTPYWVDKGIEILKVVIQIDVELKILKKQIDLLLREFRITSQRVNLFEKVMIPTAKANIKKINIYLGDQQTAAVVRGKIAKSSLIKKNRNSLLEHHHHHH | not soluble |
| MINLTNLASSLARVALSDSTKPTIDRAMNVVSHIAGKVALQVNSSLLEQKGRLNERQQKGLEVILDALLGKEPVTHVETHEGGGRFNLARAAFDVASVVWERDQSMRNVMSFLGINDSKGNLLFSLGKTLADAMARPEPENGKHNSEANYAFFSSNLKLNKLMNDIADQVINEIRQQNTDRVRRPTPGPSWRPESTQQQARPQTPPSARPQANSAPPPPKAQPDAGAQRPSTERPPKTTPTGASAKVDDSAPAKPPVKQLYEHLGLSDMTADLSAVKKAYKKAALKYHPDKNAGNVAEANERFKKISNAFRILSDPELRTKYDNGVIDENG | not soluble |
| MIPATLHQLKVFETTARHGSFTKAAEELSITQPTVSGQVKQLTQTIGMPLFEHIGRKLYLTEAGEELLATCQEIFERLDNFEMKLAALQGAKRGQLRLGVITTTKYFVPRILGEFCQDYPDIDVSLQVINHQQLHDRMADNLDDLYILSNLPDDLDVHAQAFLDNPLVVVARADHPLAHQKNLPLSVLDGADFVTREMGSGTRLAVEKLLAEHDVSVQVRLELGSNEAIKQAIAGGLGISVLSRHTLITEPPHGELTVLDVEHFPIQRHWYVAYLAGKQLSVIAQAFLEFMVRSSQKTLENSGRRSLALQP | not soluble |
| MIPKQLSEAEAAVVLNLTVSQVRRLRHKGKLGYTPGRPPRIGEDDIEAYLRAVKRRPTLPPPTEPPTPVIEKDSYADIQRRVREKRLKLRLRSSQRSLG | not soluble |
| MIPKVIHYCWFGGNPLPDNLKKYIKTWREQCPDYEIIEWNEHNYDVSKNVFMREAYTKKNFAYVSDYARLDIIYTYGGFYLDTDVELLKSLDPLRIHECFLAREISCDVNTGLIIGAVKGHHFLKSNMSIYDKSDLTSLNKTCVEVTTNLLINRGLKNKNIIQKIDDITIYPRNYFNPKNLLTGKVDCLTSVTYSIHHYEGSWKSSSFISDSLKIRVRLIIDFLFGYGTYRMLLRFLKLKKLEHHHHHH | soluble |
| MIPPSLPAELKAALEQLLQGTQRADAATRAERISLNYRGGGTSAPITSEADALAYAGARMPATYAAVIACLNALTAIRPDFAPATLLDVGAGPGTASWAAAQAFESLQGFTLLDANPALRNLALRLTEARRLSAIDYRLGDAGKALADAPEVTLVIASYLINELGDAARASFADALWRKTSDTLLVVEPGTPAGYQRILQLRDRLIAQGAHVIAPCPHENACPLAAPDWCHFVQRLPRSKLHLQLKSADVPFEDEKFSYVALTRVPLPQRPARVLTQPEQTKAAITAKLCTPAGKLKLAVAARRDKPAYARFRRLDWGDALEAQADLEHHHHHH | not soluble |
| MIQAAKIKQLKSLDSDLEKAIGRISGGLYIITAQKGEVKGAMLASWVSQASFNPPGFTVAVAKDRAIESLMQVGDRFVLNILEEGNYQILMKHFLKRFPPGADRFAGVKTQTASNGSPILTDALAYLECEVASRMECSDHWIVYSQVTNGRVAKAEGLTAVHHRKVGNYYLEHHHHHH | soluble |
| MIQAVFERAEDGELRSAEITGHAESGEYGLDVVCASVSTLAINFINSIEKFAGYEPILELNEDEGGYLMVEIPKDLPSHQREMTQLFFESFFLGMANLSENYSEFVQTRVITEN | soluble |
| MIQRLLNEENLLIGISELSEIAEVSPRQLRYWEEKGYISSIAKDANGPRKYRLHTVVKVHWIKRFLDEGYTLQSAVEKAEEQHRNVGMTKKIFSQMFHGISEVCPNYVAIDLGDFDEEQKLYVVFNETTEVSEYLLIPKDADVSDELKKRK | not soluble |
| MIRILHTADWHLGQTFFGYDRAEEHKAFLDWLAEEIRQNEIDALVIAGDVFDVSNPSAASQRIYYEFIYRVTAENPKLQIVIVAGNHDSAARLEAPLPLLQAMRTEVRGVVRKLEGGEIDYDHLTIELKNREGEVEVLCMAVPFLRQGDYPVVETEGNPYMEGVRELYARLLQRLWARRKTNQAILAVGHLQATGSEIAEKDYSERTVIGGLECVSPDTFSEKIAYTALGHIHKAQRVSGRENVRYAGSPIPMSFAEKHYHHGVVMVILDEGCAVDIRRIECPQSIPLISVPGGEAASPEKIIEILRDLPEVDGEAPYLEVKVLLEEPEPMLRQEIEEALAGKKYRLARIVSAYRQEERVEKEVDGWKKGLQEMSPLQIAQSAFEKVYQAEMPADLTDLFQEAYISATRKEEEEGE | not soluble |
| MIRLNVFVRVNETNREKAIEAAKELTACSLKEEGCIAYDTFESSTRRDVFMICETWQNAEVLAAHEKTAHFAQYVGIIQELAEMKLEKFEF | soluble |
| MISHLFQTYGRRTVEFVKGNGTKVIDNNGKQYLDFTSGIGVCNLGHCHPTVMKAVQEQLNDIWHISNLFTNSLQEEVASLLTENIALDYVFFCNSGAEANEAALKLARKHTGKSLVVTCEQSFHGRTFGTMSATGQNKVKEGFGPLLPSFLHTPFNDIKALKEVMNEEVAAVMVEVVQGEGGVIPADLSFLKEIETLCKKFGSLFIIDEVQTGIGRTGTLFAYEQMGIDPHIVTTAKALGNGIPVGAMIGRKELGTSFTAGSHGSTFGGNYVAMAAAKEVLQVSKRLSFLKEVQEKGEYVLQKLQEELQHVECIQNIRGKGLMVGIECTHEVASFIEQLEKEGLLVLQAGPNVIRLLPPLIVTNEELEQAVYMIKKVVCTKNVSII | not soluble |

— the DeepSol protein solubility set
